Source: patent US7005283B2, “Cytochrome P450 oxygenases and their uses” (Washington State University Research Foundation, priority 1999, dated 2006)

Key:
[1] = In vivo assay of yeast cells expressing recombinant oxygenases, radio-HPLC, substrate taxadiene; assay type: cell-based, Saccharomyces cerevisiae; details: assayed with Taxadiene; graded symbols, key not given
Source text: (§1) Transformed yeast cells that fimctionally express a recombinant cytochrome P450 gene from Taxus (by CO-difference spectrum) can be tested in vivo for their ability to oxygenate (hydroxylate or epoxidize) taxoid substrates fed exogenously to the cells, thereby eliminating the need for microsome isolation for preliminary in vitro assays.
(§2) Accordingly, several clones of the available full-length clones were expressed in induced yeast host cells.
(§3) Isolated transformants for each full-length cytochrome P450 clone shown to express a functional enzyme by CO-difference spectrum (ten clones) were grown to stationary phase in 2 mL SGI medium at 30° C. and used to inoculate a 10-mL expression culture (in YPL medium). Approximately 8 hours after induction, cells were harvested by centrifugation (10 minutes at 1500 rpm), and the pellet was resuspended in 2 mL of fresh YPL medium.
(§4) To eliminate additional complication and uncertainty associated with microsome isolations for in vitro assays, 10^6 dpm of [20-^3H3]taxa-4(5),11(12)-diene (16 Ci/mol) or [20-^3H2]taxa-4(20),11(12)-diene-5-α-ol (4.0 Ci/mol), or other taxoid substrate were added directly to the cell suspension to assay conversion in vivo. After 12 hours of incubation at 30° C. with agitation (250 rpm), the mixture was treated for 15 minutes in a sonication bath and extracted 3 times with 2 mL diethyl ether to insure isolation of the biosynthetic products. These ether extracts, containing residual substrate and derived product(s), were concentrated to dryness, resuspended in 200 μL of CH3CN, and filtered. These samples were analyzed by radio-HPLC (Hefner et al., Chemistry and Biology 3:479–489, 1996) using a 4.6 mm i.d.×250 mm column of Econosil C18, 5 μ (Alltech, Deerfield, Ill.) with a gradient of CH3CN in H2O from 0% to 85% (10 minutes at 1 mL/minute), then to 100% CH3CN over 40 minutes.

[2] = In vivo assay of yeast cells expressing recombinant oxygenases, radio-HPLC, substrate taxadienyl acetate; assay type: cell-based, Saccharomyces cerevisiae; details: for product identified HPLC peak: assayed with Taxadienyl Ac, graded symbols, key not given
Procedure: (§5) Transformed yeast cells that functionally express a recombinant cytochrome P450 gene from Taxus (by CO-difference spectrum) were tested in vivo for their ability to oxygenate (hydroxylate or epoxidize) taxoid substrates fed exogenously, thereby eliminating the need for microsome isolation for such a preliminary in vitro assay. […] The ether extracts resulting from these incubations were analyzed by radio-HPLC. Several clones converted the taxadienyl-5α-yl acetate substrate to a more polar product.
as §3, §4

[3] = assay type: binding, Saccharomyces cerevisiae
Source text: CO-sensor of the 19 full-length cytochrome P450 clones from Taxus, thus far obtained, ten have yielded detectable CO-difference spectra (Table 2). […] These alternative expression systems for cytochrome P450 genes include the yeast Pichia pastoris, for which expression vectors and hosts are commercially available (Invitrogen, Carlsbad, Calif.), as well as established E. coli and baculovirus-insect cell systems for which general expression procedures have been described (Barnes, Methods Enzymol. 272:1–14, 1996;Gonzalez et al., Methods Enzymol. 206:93–99, 1991;Lee et al., Methods Enzymol. 272:86–98, 1996;and Lupien et al., Arch. Biochem. Biophys. 368:181–192, 1999).
Appropriate restriction sites were introduced by standard PCR methods (Innis et al., PCR Protocols: A Guide to Methods and Applications, Academic Press, San Diego, Calif., 1990) immediately upstream of the ATG start codon and downstream of the stop codon of all full-length cytochrome P450 clones. These modified amplicons were gel-purified, digested with the corresponding restriction enzymes, and then ligated into the expression vector pYeDP60. The vector/insert junctions were sequenced to ensure that no errors had been introduced by the PCR construction. Verified clones were transformed into yeast using the lithium acetate method (Ito et al., J. Bacteriol. 153:163–168, 1983). Isolated transformants were grown to stationary phase in SGI medium (Pompon et al., Methods Enzymol. 272:51–64, 1996), and used as inocula for a large-scale expression culture grown in YPL medium (Pompon et al., Methods Enzymol. 272:51–64, 1996). Approximately 24 hours after induction of cytochrome P450 expression with galactose (to 10% final concentration), a portion of the yeast cell culture was harvested by centrifugation. One-half of the culture was treated with carbon monoxide, and the cytochrome P450 CO-difference spectrum was recorded directly (using untreated cells as a control) by spectrophotometry (Omura and Sato, J. Biol. Chem. 239:2370–2378, 1964).

[4] = In vivo assay of yeast cells expressing recombinant oxygenases, radio-HPLC, substrate taxadien-5α-ol; assay type: cell-based, Saccharomyces cerevisiae; details: for product identified HPLC peak: assayed with Taxadien5αol, graded symbols, key not given
Source text: as §1, §2, §3, §4

[5] = In vivo screening of functionally expressed clones in yeast with taxoid substrates (general statements); assay type: cell-based, Saccharomyces cerevisiae
Source text: as §1, §2, §5
Isolated transformants for each full-length cytochrome P450 clone shown to express a functional enzyme by CO-difference spectrum (ten clones) were grown to stationary phase in 2 mL SGI medium at 30° C. and used to inoculate a 10-mL expression culture (in YPL medium). Approximately 8 hours after induction, cells were harvested by centrifugation (10 minutes at 1500 rpm), and the pellet was resuspended in 2 mL of fresh YPL medium. […]

[6] = yeast transformants, radio-HPLC and GC-MS

B1: clone F21: Taxus cuspidata cytochrome P450 oxygenase, full-length clone, SEQ ID NO: 44 (nt) / 57 (aa) (protein, listed as Taxus cuspidata)
chain: MLIEMDTFVQLESSPVLLSLTLTLILLFIFCSKQYRSSLKLPPGNMGFPLIGETIALASQTPDKFFGDRMKKFGKVFKTSLIGHPTIVLCGSSGNRFLLSNEEKLVRMFPPNSSSKLLGQDSVLGKIGEEHRIVRTALARCLGPQALQNYVSKMSSEIQRHINQKWKGKGEVKMLPLIRSLVFSIATSLFFGITDEQQQERLHHLLETVVTGLLCIPLDFPGTTFRKALHARSKLDEIMSSVIERRRNDLRLGAASSDQDLLSVLLTFKDERGNPFADKEILDNFSFLLHALYDTTISPLTLVFKLVSSNPECYENIAQEQLEILRNKKDGEDISWADLKDMKYTWQAVQETLRMCPPVYGNFRKALTDIHYDGYTIPKGWRILCSPYTTHSKEEYFDDPEKFRPSRFEEQGRDVAPYTFIPFGGGLRICPGREFAKMEILVFMHHFVKAFSSFIPVDPNEKISTDPLPSIPVNGFSINLVPRS
- product identified HPLC peak [1]: No
- product identified HPLC peak [2]: No
- CO diff. spec. [3]: +

B2: clone F34: Taxus cuspidata cytochrome P450, outlying full-length clone, SEQ ID NO: 53 (nt) / 66 (aa) (protein, listed as Taxus cuspidata)
chain: MAYPELLENLSGDRAQSPAIAAVLTILFLLGIFYILRGLRNNGRRLPPGPIPWPIVGNLHQLGKLPNRNLEELAKKHGPIMLMKLGSVPAVIVSSSAMAKEVLKTHDLVFASRPESAAGKYIAYNYKDIVFSPYGPYWRQMKKICVVELLNARRIESLRSVREEEVSVIIRSVWEKSKQGAVAVNLSKTLSSLTQGLMLQIFSSNDDGGNSSVTAIKEMMSEVSETAGAFNIGDYFPWMDWMDLQGIQRRMTKAHDYFDQVITKIIEQHQRTRAMEDTQQPKDIIDALLQMENTDGVTITMENIKAVVLGIFLGGAETTSTTLEWAMSAMLENPEVAKKVQEEIESVVGRKRVVKEMIWESMEYLQCVVKKTMRLYPAVPLLIPHESTQDCTVNGYFIPERTRILVNAWAIGKDPNVWDDALAFKPKRFLGXNVDLQKGKEFFDMVPFGAGRKGCPGASMAVVTMEHALAQLMHCFQWRIEGELDMSERLAASVQKKVDLCVLPQWRLTSSP
modifications: X: residue not identified in the source; ends and bridges not checked
- product identified HPLC peak [1]: No
- product identified HPLC peak [4]: No
- oxygenation of taxoid substrates ([5]; in vivo): does not transform the taxoid substrates to oxygenated products
- CO diff. spec. [3]: ++
- CO-difference spectrum [3]: reliable CO-difference spectrum

B3: clone F31: Taxus cuspidata cytochrome P450 oxygenase, full-length clone, SEQ ID NO: 46 (nt) / 59 (aa) (protein, listed as Taxus cuspidata)
chain: MDALSLVNSTVAKFNEVTQLQASPAILSTALTAIAGIIVLLVITSKRRSSLKLPPGKLGLPFIGETLEFVKALRSDTLRQFVEEREGKFGRVFKTSLLGKPTVILCGPAGNRLVLSNEEKLLHVSWSAQIARILGLNSVAVKRGDDHRVLRVALAGFLGSAGLQLYIGKMSALIRNHINEKWKGKDEVNVLSLVRDLVMDNSAILFFNIYDKERKQQLHEILKIILASHFGIPLNIPGFLYRKALKGSLKRKKILSALLEKRKDELRSRLASSNQDLLSVLLSFRDERGKPLSDEAVLDNCFAMLDASYDTTTSQMTLILKMLSSNPECFEKVVQEQLEIASNKKEGEEITMKDIKAMKYTWQVLQESLRMLSPVFGTLRKTMNDINHDGYTIPKGWQVVWTTYSTHQKDIYFKQPDKFMPSRFEEEDGHLDAYTFVPFGGGRRTCPGWEYAKVEILLFLHHFVKAFSGYTPTDPHERICGYPVPLVPVKGFPIKLIARS
- product identified HPLC peak [1]: No
- product identified HPLC peak [4]: No
- product identified HPLC peak [2]: No
- CO diff. spec. [3]: +

B4: clone F14: Taxus cuspidata cytochrome P450 taxane 10β-hydroxylase, full-length clone, SEQ ID NO: 51 (nt) / 64 (aa) (protein, listed as Taxus cuspidata)
chain: MDSFIFLRSIGTKFGQLESSPAILSLTLAPILAIILLLLFRYNHRSSVKLPPGKLGFPLIGETIQLLRTLRSETPQKFFDDRLKKFGPVYMTSLIGHPTVVLCGPAGNKLVLSNEDKLVEMEGPKSFMKLIGEDSIVAKRGEDHRILRTALARFLGAQALQNYLGRMSSEIGHHFNEKWKGKDEVKVLPLVRGLIFSIASTLFFDVNDGHQQKQLHHLLETILVGSLSVPLDFPGTRYRKGLQARLKLDEILSSLIKRRRRDLRSGIASDDQDLLSVLLTFRDEKGNSLTDQGILDNFSAMFHASYDTTVAPMALIFKLLYSNPEYHEKVFQEQLEIIGNKKEGEEISWKDLKSMKYTWQAVQESLRMYPPVFGIFRKAITDIHYDGYTIPKGWRVLCSPYTTHLREEYFPEPEEFRPSRFEDEGRHVTPYTYVPFGGGLRTCPGWEFSKIEILLFVHHFVKNFSSYIPVDPNEKVLSDPLPPLPANGFSIKLFPRS
- product identified HPLC peak [1]: No
- product formed from taxadien-5α-ol [4, 6]: diol products
- product formed from taxadien-5α-yl acetate [2, 6]: taxadien-diol monoacetate
- enzyme function assigned from screening ([5]; taxadienol and taxadienyl acetate as test substrates): cytochrome P450 taxane-10β-hydroxylase
- CO diff. spec. [3]: +++
